Measurements taken from patent US20250171562A1 (ALK ABELL, published 2025).
Each block holds one binder with its values, some of them ahead of it.

Molecular target: T1, recombinant human IgE (human, UniProt P01854-1 1-428)
T1 construct: made in-house (ALK); preloaded on immobilised FcεRIα in the displacement ELISA
Experiment: IgE-FcεRIα displacement ELISA
Outline: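 sdAbs at pM–μM were incubated 1 h on preformed complexes of 13 ng/ml recombinant human IgE with avi-tag-biotinylated human FcεRIα captured on streptavidin.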

T1 sequence (P01854 other isoform, or with tags, fused parts or gaps): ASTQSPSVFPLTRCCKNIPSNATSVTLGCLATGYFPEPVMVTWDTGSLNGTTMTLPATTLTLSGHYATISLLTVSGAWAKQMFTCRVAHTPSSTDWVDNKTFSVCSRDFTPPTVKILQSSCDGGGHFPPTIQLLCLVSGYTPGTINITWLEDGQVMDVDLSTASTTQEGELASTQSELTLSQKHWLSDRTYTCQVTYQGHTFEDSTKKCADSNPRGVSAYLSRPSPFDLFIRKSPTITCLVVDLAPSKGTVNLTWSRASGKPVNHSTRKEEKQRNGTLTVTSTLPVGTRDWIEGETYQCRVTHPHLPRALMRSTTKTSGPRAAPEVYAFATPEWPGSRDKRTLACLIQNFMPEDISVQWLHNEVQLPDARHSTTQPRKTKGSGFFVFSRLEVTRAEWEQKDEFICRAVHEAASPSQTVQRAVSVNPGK

Max effect: 30%
B1: CIgG4F3A1(RS) (Fc fusion)
chain 1: GPPCPPCPAPEFLGGPSVFLFPPKPKDTLMISRTPEVTCVVVDVSQEDPEVQFNWYVDGVEVHNAKTKPREEQFNSTYRVVSVLTVLHQDWLNGKEYKCKVSNKGLPSSIEKTISKAKGQPREPQVYTLPPCQEEMTKNQVSLWCLVKGFYPSDIAVEWESNGQPENNYKTTPPVLDSDGSFFLYSRLTVDKSRWQEGNVFSCSVMHEALHNHYTQKSLSLSLGKRSDVQLQESGGGLVQAGGSLKLSCAASRGSLSRWDVAWFRQAPGKERSFVTRISWSGTTSYYADAVKGRFAISRDNAKNTVYLQMNSLKPEDTAVYYCAVALYGNRGYYDVNAHSYWGQGTQVTVS
chain 2: GPPCPPCPAPEFLGGPSVFLFPPKPKDTLMISRTPEVTCVVVDVSQEDPEVQFNWYVDGVEVHNAKTKPREEQFNSTYRVVSVLTVLHQDWLNGKEYKCKVSNKGLPSSIEKTISKAKGQPREPQVCTLPPSQEEMTKNQVSLSCAVKGFYPSDIAVEWESNGQPENNYKTTPPVLDSDGSFFLVSRLTVDKSRWQEGNVFSCSVMHEALHNHYTQKSLSLSLGKRSEVQLLESGGGLVQPGGSLRLSCAASGFTFGNYDMAWVRQAPGKRPEWVSSIDTGGDITHYADSVKGRFTISRDNAKNTLYLQMNSLRPEDTAVYWCATDEEYALGPNEFDYYGQGTLVTVSS

Max effect: > 95%
B2: NIgG4F4A1(G4S)1 (Fc fusion)
chain 1: DVQLQESGGGLVQAGGSLRLSCAVSGLSFSSMGWFRQPPGKEREFVAAISLYSGSTYYADSVKGRFTISSDNAKSTVYLQMNSLKPEDAAVYFCAADRQRTWSTFYASRQATYNYWGQGTQVTVTSGGGGSGPPCPPCPAPEFLGGPSVFLFPPKPKDTLMISRTPEVTCVVVDVSQEDPEVQFNWYVDGVEVHNAKTKPREEQFNSTYRVVSVLTVLHQDWLNGKEYKCKVSNKGLPSSIEKTISKAKGQPREPQVYTLPPCQEEMTKNQVSLWCLVKGFYPSDIAVEWESNGQPENNYKTTPPVLDSDGSFFLYSRLTVDKSRWQEGNVFSCSVMHEALHNHYTQKSLSLSLGK
chain 2: EVQLLESGGGLVQPGGSLRLSCAASGFTFGNYDMAWVRQAPGKRPEWVSSIDTGGDITHYADSVKGRFTISRDNAKNTLYLQMNSLRPEDTAVYWCATDEEYALGPNEFDYYGQGTLVTVSSGGGGSGPPCPPCPAPEFLGGPSVFLFPPKPKDTLMISRTPEVTCVVVDVSQEDPEVQFNWYVDGVEVHNAKTKPREEQFNSTYRVVSVLTVLHQDWLNGKEYKCKVSNKGLPSSIEKTISKAKGQPREPQVCTLPPSQEEMTKNQVSLSCAVKGFYPSDIAVEWESNGQPENNYKTTPPVLDSDGSFFLVSRLTVDKSRWQEGNVFSCSVMHEALHNHYTQKSLSLSLGK

Max effect: 45%
B3: CIgG4F2A1(G4S)3 (Fc fusion)
chain 1: GPPCPPCPAPEFLGGPSVFLFPPKPKDTLMISRTPEVTCVVVDVSQEDPEVQFNWYVDGVEVHNAKTKPREEQFNSTYRVVSVLTVLHQDWLNGKEYKCKVSNKGLPSSIEKTISKAKGQPREPQVYTLPPCQEEMTKNQVSLWCLVKGFYPSDIAVEWESNGQPENNYKTTPPVLDSDGSFFLYSRLTVDKSRWQEGNVFSCSVMHEALHNHYTQKSLSLSLGKGGGGSGGGGSGGGGSDVQLQESGGGLVQAGGSLKLSCAASGGSLSRYDMGWFRQAPGKEREFVARISWSGDTKYYADAVEGRFAISRDNAQNTVYLQMNSLKPEDTAVYYCAVALYGNRGYYDVNTYSYWGQGTRVTVS
chain 2: GPPCPPCPAPEFLGGPSVFLFPPKPKDTLMISRTPEVTCVVVDVSQEDPEVQFNWYVDGVEVHNAKTKPREEQFNSTYRVVSVLTVLHQDWLNGKEYKCKVSNKGLPSSIEKTISKAKGQPREPQVCTLPPSQEEMTKNQVSLSCAVKGFYPSDIAVEWESNGQPENNYKTTPPVLDSDGSFFLVSRLTVDKSRWQEGNVFSCSVMHEALHNHYTQKSLSLSLGKGGGGSGGGGSGGGGSEVQLLESGGGLVQPGGSLRLSCAASGFTFGNYDMAWVRQAPGKRPEWVSSIDTGGDITHYADSVKGRFTISRDNAKNTLYLQMNSLRPEDTAVYWCATDEEYALGPNEFDYYGQGTLVTVSS

EC50: 24 nM
Max effect: 90%
B4: CIgG4F3A1(G4S)3 (Fc fusion)
chain 1: GPPCPPCPAPEFLGGPSVFLFPPKPKDTLMISRTPEVTCVVVDVSQEDPEVQFNWYVDGVEVHNAKTKPREEQFNSTYRVVSVLTVLHQDWLNGKEYKCKVSNKGLPSSIEKTISKAKGQPREPQVYTLPPCQEEMTKNQVSLWCLVKGFYPSDIAVEWESNGQPENNYKTTPPVLDSDGSFFLYSRLTVDKSRWQEGNVFSCSVMHEALHNHYTQKSLSLSLGKGGGGSGGGGSGGGGSDVQLQESGGGLVQAGGSLKLSCAASRGSLSRWDVAWFRQAPGKERSFVTRISWSGTTSYYADAVKGRFAISRDNAKNTVYLQMNSLKPEDTAVYYCAVALYGNRGYYDVNAHSYWGQGTQVTVS
chain 2: B3 chain 2

Max effect: > 95%
B5: NIgG4F4A1(RS) (Fc fusion)
chain 1: DVQLQESGGGLVQAGGSLRLSCAVSGLSFSSMGWFRQPPGKEREFVAAISLYSGSTYYADSVKGRFTISSDNAKSTVYLQMNSLKPEDAAVYFCAADRQRTWSTFYASRQATYNYWGQGTQVTVTSRSGPPCPPCPAPEFLGGPSVFLFPPKPKDTLMISRTPEVTCVVVDVSQEDPEVQFNWYVDGVEVHNAKTKPREEQFNSTYRVVSVLTVLHQDWLNGKEYKCKVSNKGLPSSIEKTISKAKGQPREPQVYTLPPCQEEMTKNQVSLWCLVKGFYPSDIAVEWESNGQPENNYKTTPPVLDSDGSFFLYSRLTVDKSRWQEGNVFSCSVMHEALHNHYTQKSLSLSLGK
chain 2: EVQLLESGGGLVQPGGSLRLSCAASGFTFGNYDMAWVRQAPGKRPEWVSSIDTGGDITHYADSVKGRFTISRDNAKNTLYLQMNSLRPEDTAVYWCATDEEYALGPNEFDYYGQGTLVTVSSRSGPPCPPCPAPEFLGGPSVFLFPPKPKDTLMISRTPEVTCVVVDVSQEDPEVQFNWYVDGVEVHNAKTKPREEQFNSTYRVVSVLTVLHQDWLNGKEYKCKVSNKGLPSSIEKTISKAKGQPREPQVCTLPPSQEEMTKNQVSLSCAVKGFYPSDIAVEWESNGQPENNYKTTPPVLDSDGSFFLVSRLTVDKSRWQEGNVFSCSVMHEALHNHYTQKSLSLSLGK

EC50: 1000 nM
Max effect: 50%
B6: CIgG4F3A1(G4S)1 (Fc fusion)
chain 1: GPPCPPCPAPEFLGGPSVFLFPPKPKDTLMISRTPEVTCVVVDVSQEDPEVQFNWYVDGVEVHNAKTKPREEQFNSTYRVVSVLTVLHQDWLNGKEYKCKVSNKGLPSSIEKTISKAKGQPREPQVYTLPPCQEEMTKNQVSLWCLVKGFYPSDIAVEWESNGQPENNYKTTPPVLDSDGSFFLYSRLTVDKSRWQEGNVFSCSVMHEALHNHYTQKSLSLSLGKGGGGSDVQLQESGGGLVQAGGSLKLSCAASRGSLSRWDVAWFRQAPGKERSFVTRISWSGTTSYYADAVKGRFAISRDNAKNTVYLQMNSLKPEDTAVYYCAVALYGNRGYYDVNAHSYWGQGTQVTVS
chain 2: GPPCPPCPAPEFLGGPSVFLFPPKPKDTLMISRTPEVTCVVVDVSQEDPEVQFNWYVDGVEVHNAKTKPREEQFNSTYRVVSVLTVLHQDWLNGKEYKCKVSNKGLPSSIEKTISKAKGQPREPQVCTLPPSQEEMTKNQVSLSCAVKGFYPSDIAVEWESNGQPENNYKTTPPVLDSDGSFFLVSRLTVDKSRWQEGNVFSCSVMHEALHNHYTQKSLSLSLGKGGGGSEVQLLESGGGLVQPGGSLRLSCAASGFTFGNYDMAWVRQAPGKRPEWVSSIDTGGDITHYADSVKGRFTISRDNAKNTLYLQMNSLRPEDTAVYWCATDEEYALGPNEFDYYGQGTLVTVSS

Max effect: 35%
B7: CIgG4F2A1(G4S)2 (Fc fusion)
chain 1: GPPCPPCPAPEFLGGPSVFLFPPKPKDTLMISRTPEVTCVVVDVSQEDPEVQFNWYVDGVEVHNAKTKPREEQFNSTYRVVSVLTVLHQDWLNGKEYKCKVSNKGLPSSIEKTISKAKGQPREPQVYTLPPCQEEMTKNQVSLWCLVKGFYPSDIAVEWESNGQPENNYKTTPPVLDSDGSFFLYSRLTVDKSRWQEGNVFSCSVMHEALHNHYTQKSLSLSLGKGGGGSGGGGSDVQLQESGGGLVQAGGSLKLSCAASGGSLSRYDMGWFRQAPGKEREFVARISWSGDTKYYADAVEGRFAISRDNAQNTVYLQMNSLKPEDTAVYYCAVALYGNRGYYDVNTYSYWGQGTRVTVS
chain 2: GPPCPPCPAPEFLGGPSVFLFPPKPKDTLMISRTPEVTCVVVDVSQEDPEVQFNWYVDGVEVHNAKTKPREEQFNSTYRVVSVLTVLHQDWLNGKEYKCKVSNKGLPSSIEKTISKAKGQPREPQVCTLPPSQEEMTKNQVSLSCAVKGFYPSDIAVEWESNGQPENNYKTTPPVLDSDGSFFLVSRLTVDKSRWQEGNVFSCSVMHEALHNHYTQKSLSLSLGKGGGGSGGGGSEVQLLESGGGLVQPGGSLRLSCAASGFTFGNYDMAWVRQAPGKRPEWVSSIDTGGDITHYADSVKGRFTISRDNAKNTLYLQMNSLRPEDTAVYWCATDEEYALGPNEFDYYGQGTLVTVSS

EC50: 41 nM
Max effect: 80%
B8: CIgG4F3A1(G4S)2 (Fc fusion)
chain 1: GPPCPPCPAPEFLGGPSVFLFPPKPKDTLMISRTPEVTCVVVDVSQEDPEVQFNWYVDGVEVHNAKTKPREEQFNSTYRVVSVLTVLHQDWLNGKEYKCKVSNKGLPSSIEKTISKAKGQPREPQVYTLPPCQEEMTKNQVSLWCLVKGFYPSDIAVEWESNGQPENNYKTTPPVLDSDGSFFLYSRLTVDKSRWQEGNVFSCSVMHEALHNHYTQKSLSLSLGKGGGGSGGGGSDVQLQESGGGLVQAGGSLKLSCAASRGSLSRWDVAWFRQAPGKERSFVTRISWSGTTSYYADAVKGRFAISRDNAKNTVYLQMNSLKPEDTAVYYCAVALYGNRGYYDVNAHSYWGQGTQVTVS
chain 2: B7 chain 2
